Values quoted from earlier work, collected in patent US9522171B2 (priority 2010, dated 2016).

How the values were obtained:
C5 [1] = target: T1, C5 (Mus musculus, UniProt P06684); details: mouse serum; cited from earlier work
T1 construct: from tissue; host or cells: mouse serum

C5 [2] = target: T2, C5 (Rattus norvegicus, UniProt P08650); details: rat serum; cited from earlier work
T2 construct: from tissue; host or cells: rat serum

[3] = test system: alternative, classical and lectin complement pathways; details: cited from earlier work
C5 [4] = target: T3, C5 (Homo sapiens, UniProt P01031); details: human serum; cited from earlier work
T3 construct: from tissue; host or cells: human serum
T3 sequence (P01031 19-1676): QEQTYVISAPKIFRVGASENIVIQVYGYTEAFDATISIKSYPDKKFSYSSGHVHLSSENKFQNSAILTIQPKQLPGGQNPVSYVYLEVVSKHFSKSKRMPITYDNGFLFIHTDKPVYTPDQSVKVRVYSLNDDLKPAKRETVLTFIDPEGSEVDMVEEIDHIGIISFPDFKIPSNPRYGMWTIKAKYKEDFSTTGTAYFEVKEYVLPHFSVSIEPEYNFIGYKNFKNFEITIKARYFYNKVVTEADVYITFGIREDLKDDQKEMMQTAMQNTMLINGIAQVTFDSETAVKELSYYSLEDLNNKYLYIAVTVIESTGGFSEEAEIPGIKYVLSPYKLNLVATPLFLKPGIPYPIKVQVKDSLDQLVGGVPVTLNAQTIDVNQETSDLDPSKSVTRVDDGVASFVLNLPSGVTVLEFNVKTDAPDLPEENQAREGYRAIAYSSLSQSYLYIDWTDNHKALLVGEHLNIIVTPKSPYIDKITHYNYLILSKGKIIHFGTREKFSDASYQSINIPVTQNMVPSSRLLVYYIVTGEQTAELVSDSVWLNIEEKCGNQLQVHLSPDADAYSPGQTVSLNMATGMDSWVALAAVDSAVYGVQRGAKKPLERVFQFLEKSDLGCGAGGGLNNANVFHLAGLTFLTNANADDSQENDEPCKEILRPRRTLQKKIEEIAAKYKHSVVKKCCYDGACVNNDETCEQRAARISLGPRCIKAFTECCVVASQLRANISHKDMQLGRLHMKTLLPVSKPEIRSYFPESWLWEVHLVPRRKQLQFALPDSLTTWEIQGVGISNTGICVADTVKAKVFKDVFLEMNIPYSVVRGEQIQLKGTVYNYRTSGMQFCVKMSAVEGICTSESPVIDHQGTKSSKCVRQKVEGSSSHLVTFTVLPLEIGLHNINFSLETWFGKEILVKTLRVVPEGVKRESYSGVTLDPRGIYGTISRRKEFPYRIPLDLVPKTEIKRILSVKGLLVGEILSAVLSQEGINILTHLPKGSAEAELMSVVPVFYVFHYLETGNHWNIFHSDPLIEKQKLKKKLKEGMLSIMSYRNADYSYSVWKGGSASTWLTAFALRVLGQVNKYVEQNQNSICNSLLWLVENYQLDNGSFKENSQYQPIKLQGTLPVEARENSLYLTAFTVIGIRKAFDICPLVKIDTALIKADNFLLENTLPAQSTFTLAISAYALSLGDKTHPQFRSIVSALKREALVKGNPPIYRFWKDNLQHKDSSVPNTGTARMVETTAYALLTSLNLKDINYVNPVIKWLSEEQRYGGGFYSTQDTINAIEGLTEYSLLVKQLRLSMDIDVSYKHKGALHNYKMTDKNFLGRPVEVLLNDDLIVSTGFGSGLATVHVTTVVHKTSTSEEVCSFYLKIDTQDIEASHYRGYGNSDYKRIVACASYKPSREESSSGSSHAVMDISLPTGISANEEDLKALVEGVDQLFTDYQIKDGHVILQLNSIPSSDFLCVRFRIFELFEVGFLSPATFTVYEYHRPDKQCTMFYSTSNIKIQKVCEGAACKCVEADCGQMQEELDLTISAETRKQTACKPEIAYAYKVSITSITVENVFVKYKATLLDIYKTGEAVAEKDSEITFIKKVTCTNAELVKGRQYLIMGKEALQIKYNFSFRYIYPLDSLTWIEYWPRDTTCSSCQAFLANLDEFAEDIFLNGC

T1 sequence (P06684 19-1680): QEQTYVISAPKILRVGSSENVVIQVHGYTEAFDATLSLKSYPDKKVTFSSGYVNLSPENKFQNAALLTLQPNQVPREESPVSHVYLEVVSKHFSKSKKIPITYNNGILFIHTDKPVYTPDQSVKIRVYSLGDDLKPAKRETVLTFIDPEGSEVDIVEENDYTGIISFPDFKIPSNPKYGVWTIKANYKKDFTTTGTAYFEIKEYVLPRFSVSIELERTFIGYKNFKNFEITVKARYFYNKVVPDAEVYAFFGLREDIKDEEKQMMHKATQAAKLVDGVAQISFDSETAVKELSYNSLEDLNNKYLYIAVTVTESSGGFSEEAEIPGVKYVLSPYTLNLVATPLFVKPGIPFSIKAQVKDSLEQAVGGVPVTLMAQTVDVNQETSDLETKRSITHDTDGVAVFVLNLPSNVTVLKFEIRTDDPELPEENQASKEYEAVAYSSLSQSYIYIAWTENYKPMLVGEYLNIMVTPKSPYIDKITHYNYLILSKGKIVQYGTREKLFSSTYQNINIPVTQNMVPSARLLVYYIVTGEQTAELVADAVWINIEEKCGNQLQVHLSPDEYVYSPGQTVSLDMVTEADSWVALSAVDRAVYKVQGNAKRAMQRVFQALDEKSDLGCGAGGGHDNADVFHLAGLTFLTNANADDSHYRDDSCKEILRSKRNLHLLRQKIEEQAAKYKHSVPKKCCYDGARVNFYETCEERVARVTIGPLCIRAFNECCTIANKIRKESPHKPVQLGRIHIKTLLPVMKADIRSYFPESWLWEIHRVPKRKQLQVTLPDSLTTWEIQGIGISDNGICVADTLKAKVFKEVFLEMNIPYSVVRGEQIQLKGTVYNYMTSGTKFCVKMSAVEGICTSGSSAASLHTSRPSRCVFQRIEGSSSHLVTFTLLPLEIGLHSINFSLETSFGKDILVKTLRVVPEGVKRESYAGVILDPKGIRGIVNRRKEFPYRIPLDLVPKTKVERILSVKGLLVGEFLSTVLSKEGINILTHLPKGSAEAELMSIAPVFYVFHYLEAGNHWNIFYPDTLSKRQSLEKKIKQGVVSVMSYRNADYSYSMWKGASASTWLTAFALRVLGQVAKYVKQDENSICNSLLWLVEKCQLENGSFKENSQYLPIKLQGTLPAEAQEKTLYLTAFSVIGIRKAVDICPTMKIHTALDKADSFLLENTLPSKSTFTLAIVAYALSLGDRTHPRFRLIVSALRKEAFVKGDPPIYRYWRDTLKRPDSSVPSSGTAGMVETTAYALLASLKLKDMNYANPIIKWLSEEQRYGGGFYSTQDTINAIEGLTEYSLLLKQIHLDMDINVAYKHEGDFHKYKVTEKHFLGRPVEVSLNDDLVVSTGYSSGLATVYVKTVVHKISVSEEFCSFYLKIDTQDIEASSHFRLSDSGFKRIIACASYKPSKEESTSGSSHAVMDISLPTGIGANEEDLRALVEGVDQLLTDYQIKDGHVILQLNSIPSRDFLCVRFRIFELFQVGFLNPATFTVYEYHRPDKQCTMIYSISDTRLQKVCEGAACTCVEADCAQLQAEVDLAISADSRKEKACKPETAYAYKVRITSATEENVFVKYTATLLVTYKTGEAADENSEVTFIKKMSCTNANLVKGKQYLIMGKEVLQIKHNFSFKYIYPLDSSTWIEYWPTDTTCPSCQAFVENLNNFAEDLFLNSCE
T2 sequence (P08650 19-1681): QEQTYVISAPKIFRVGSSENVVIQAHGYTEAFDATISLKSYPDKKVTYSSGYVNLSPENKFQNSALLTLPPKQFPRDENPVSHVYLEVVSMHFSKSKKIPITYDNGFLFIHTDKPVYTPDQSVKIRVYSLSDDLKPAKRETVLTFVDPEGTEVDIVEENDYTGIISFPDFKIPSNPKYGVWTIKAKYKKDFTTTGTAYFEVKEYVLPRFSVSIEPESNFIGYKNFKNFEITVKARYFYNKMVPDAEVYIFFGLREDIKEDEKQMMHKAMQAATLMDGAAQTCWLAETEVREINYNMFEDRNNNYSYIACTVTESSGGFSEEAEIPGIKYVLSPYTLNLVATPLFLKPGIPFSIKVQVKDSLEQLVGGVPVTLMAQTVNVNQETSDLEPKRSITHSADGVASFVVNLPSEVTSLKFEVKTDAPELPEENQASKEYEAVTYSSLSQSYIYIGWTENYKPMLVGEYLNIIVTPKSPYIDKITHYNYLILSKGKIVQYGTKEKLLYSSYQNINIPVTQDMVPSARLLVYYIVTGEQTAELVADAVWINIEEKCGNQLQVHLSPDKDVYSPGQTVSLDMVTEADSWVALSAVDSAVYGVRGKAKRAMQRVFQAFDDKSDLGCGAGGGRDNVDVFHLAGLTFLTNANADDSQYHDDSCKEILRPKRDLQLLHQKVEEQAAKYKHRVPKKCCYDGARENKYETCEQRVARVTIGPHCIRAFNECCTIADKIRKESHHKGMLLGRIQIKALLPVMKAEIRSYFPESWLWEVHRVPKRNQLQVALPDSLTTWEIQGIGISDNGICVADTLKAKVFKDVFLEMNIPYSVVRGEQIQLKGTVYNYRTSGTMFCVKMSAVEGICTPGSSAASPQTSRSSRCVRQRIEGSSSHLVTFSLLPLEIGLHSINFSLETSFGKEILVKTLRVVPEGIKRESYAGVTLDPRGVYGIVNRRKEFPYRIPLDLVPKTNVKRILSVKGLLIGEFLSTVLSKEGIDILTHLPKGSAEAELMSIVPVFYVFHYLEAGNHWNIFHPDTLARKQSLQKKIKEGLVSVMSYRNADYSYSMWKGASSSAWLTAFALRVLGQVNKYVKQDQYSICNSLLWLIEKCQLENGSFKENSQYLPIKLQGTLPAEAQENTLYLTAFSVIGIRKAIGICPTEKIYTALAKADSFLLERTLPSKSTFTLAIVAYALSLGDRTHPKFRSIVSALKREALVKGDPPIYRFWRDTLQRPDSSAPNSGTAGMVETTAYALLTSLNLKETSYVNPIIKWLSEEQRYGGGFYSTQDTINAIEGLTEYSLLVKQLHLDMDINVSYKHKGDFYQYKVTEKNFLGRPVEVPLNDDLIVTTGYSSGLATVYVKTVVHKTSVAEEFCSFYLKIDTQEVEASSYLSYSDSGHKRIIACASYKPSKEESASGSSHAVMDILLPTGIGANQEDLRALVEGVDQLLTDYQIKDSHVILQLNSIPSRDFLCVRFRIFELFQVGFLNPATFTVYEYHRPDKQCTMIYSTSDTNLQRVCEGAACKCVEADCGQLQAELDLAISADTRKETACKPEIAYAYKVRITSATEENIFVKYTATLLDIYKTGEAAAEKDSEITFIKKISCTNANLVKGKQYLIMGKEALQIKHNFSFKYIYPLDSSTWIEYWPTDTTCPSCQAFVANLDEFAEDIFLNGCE

EV576: Lipocalin protein from salivary glands of the tick Ornithodoros moubata, sequence of FIG. 2; binds complement C5 and LTB4
IC50 for binding C5 and preventing its cleavage by C5 convertase (C5 [1]): approximately 0.02 mg/ml
IC50 for binding C5 and preventing its cleavage by C5 convertase (C5 [2]): approximately 0.02 mg/ml
inhibition of the complement system [3]: inhibits the alternative, classical and lectin complement pathways
IC50 for binding C5 and preventing its cleavage by C5 convertase (C5 [4]): approximately 0.02 mg/ml
